Experimental data taken from article PMC314469, “Protein Interaction Networks by Proteome Peptide Scanning” (PLoS Biology, 2004).

target: endophilin SH3 (SH3G2_HUMAN), Q99962; test: SPOT array

First: PPWVPWRPPSSAAV [Q9UN47 31-45]
Second: PPVVPRRPPAHISS [Q9NTY8 3-17]
The normalised SPOT signal, Boehringer light units (BLU); mean over the file's lines of this peptide of the first is lower: 835 for the first, 17800 for the second.

First: PQPPPRRPWASRVL [O94850 45-58]
Second: PQPPPPKPPRPQPP [P35556 29-43]
The normalised SPOT signal, Boehringer light units (BLU); mean over the file's lines of this peptide of the first is lower: 508 for the first, 3390 for the second.

First: PPYGPSRPDKKQRM [Q9HA17 357-370]
Second: PQEHPKRPVLGLES [O95862 118-131]
The normalised SPOT signal, Boehringer light units (BLU); mean over the file's lines of this peptide of the first is higher: 394 for the first, 4.5 for the second.

Compared with PQGPPRRPPPHILD [Q9P2A8 24-38], PPTPPPRPQKTHSR [O43428 338-351] is higher in normalised SPOT signal, Boehringer light units (BLU); mean over the file's lines of this peptide: 4220 for the first, 41100 for the second.

First: PPTRPSRPWRDLPE [Q9UIG4 65-78]
Second: PPVRPARPPGPLVT [Q8WYX3 74-88]
The normalised SPOT signal, Boehringer light units (BLU); mean over the file's lines of this peptide of the first is higher: 14300 for the first, 6550 for the second.

Going from PPSGPLRPPATISP [Q9H4B5 83-97] to ASGHIKRPMNAFMV [P35716 45-58], the normalised SPOT signal, Boehringer light units (BLU); mean over the file's lines of this peptide rises from 127 to 146.

First: PQQFPSRPPPPQPK [Q13443 782-796]
Second: PPWGPFRPPYSIFQ [BAC05210 58-72]
The normalised SPOT signal, Boehringer light units (BLU); mean over the file's lines of this peptide of the first is higher: 5200 for the first, 2520 for the second.

First: PPSRPSRPPSHPSA [Q99700 586-600]
Second: PQPGFRRPARPETQ [Q16624 63-76]
The normalised SPOT signal, Boehringer light units (BLU); mean over the file's lines of this peptide of the first is higher: 20300 for the first, 97 for the second.

In the case of ASHPPPRPPKHPSV [BAC05194 549-563], the normalised SPOT signal, Boehringer light units (BLU); mean over the file's lines of this peptide is reported as 5360.

Target: T1, amphyphisin SH3 (AMPH_HUMAN), P49418
T1 chain: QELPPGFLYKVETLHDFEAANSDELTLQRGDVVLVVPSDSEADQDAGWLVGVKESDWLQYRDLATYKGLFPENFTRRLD
Test: SPOT array

First: PPWVPWRPPSSAAV [Q9UN47 31-45]
Second: PPVVPRRPPAHISS [Q9NTY8 3-17]
The normalised SPOT signal, Boehringer light units (BLU); mean over the file's lines of this peptide of the first is lower: 829 for the first, 6110 for the second.

Going from PQPPPRRPWASRVL [O94850 45-58] to PQPPPPKPPRPQPP [P35556 29-43], the normalised SPOT signal, Boehringer light units (BLU); mean over the file's lines of this peptide rises from 79.9 to 513.

Compared with PPYGPSRPDKKQRM [Q9HA17 357-370], PQEHPKRPVLGLES [O95862 118-131] is lower in normalised SPOT signal, Boehringer light units (BLU); mean over the file's lines of this peptide: 193 for the first, 20.2 for the second.

Compared with PQGPPRRPPPHILD [Q9P2A8 24-38], PPTPPPRPQKTHSR [O43428 338-351] is higher in normalised SPOT signal, Boehringer light units (BLU); mean over the file's lines of this peptide: 131 for the first, 8950 for the second.

First: PPTRPSRPWRDLPE [Q9UIG4 65-78]
Second: PPVRPARPPGPLVT [Q8WYX3 74-88]
The normalised SPOT signal, Boehringer light units (BLU); mean over the file's lines of this peptide of the first is lower: 4300 for the first, 7480 for the second.

Going from PPSGPLRPPATISP [Q9H4B5 83-97] to ASGHIKRPMNAFMV [P35716 45-58], the normalised SPOT signal, Boehringer light units (BLU); mean over the file's lines of this peptide falls from 105 to 49.

First: PQQFPSRPPPPQPK [Q13443 782-796]
Second: PPWGPFRPPYSIFQ [BAC05210 58-72]
The normalised SPOT signal, Boehringer light units (BLU); mean over the file's lines of this peptide of the first is higher: 321 for the first, 56.3 for the second.

Compared with PPSRPSRPPSHPSA [Q99700 586-600], PQPGFRRPARPETQ [Q16624 63-76] is lower in normalised SPOT signal, Boehringer light units (BLU); mean over the file's lines of this peptide: 14900 for the first, 2800 for the second.

With ASHPPPRPPKHPSV [BAC05194 549-563] the normalised SPOT signal, Boehringer light units (BLU); mean over the file's lines of this peptide was 848.
